According to patent publication US11653679B2, “High-purity steviol glycosides” (PureCircle Sdn Bhd, priority 2014, dated 2023):

B1: UGT76G1var76: UGT76G1 variant, mutations F22Y_A239I_L246F_I295M_R334K (protein, UniProt Q6VAB4 1-458, looked up, variant F22Y A239I L246F I295M R334K)
UDP-glycosyltransferase 76G1: MENKTETTVRRRRRIILFPVPYQGHINPILQLANVLYSKGFSITIFHTNFNKPKTSNYPHFTFRFILDNDPQDERISNLPTHGPLAGMRIPIINEHGADELRRELELLMLASEEDEEVSCLITDALWYFAQSVADSLNLRRLVLMTSSLFNFHAHVSLPQFDELGYLDPDDKTRLEEQASGFPMLKVKDIKSAYSNWQILKEILGKMIKQTKASSGVIWNSFKELEESELETVIREIPIPSFLIPFPKHLTASSSSLLDHDRTVFQWLDQQPPSSVLYVSFGSTSEVDEKDFLEMARGLVDSKQSFLWVVRPGFVKGSTWVEPLPDGFLGERGKIVKWVPQQEVLAHGAIGAFWTHSGWNSTLESVCEGVPMIFSDFGLDQPLNARYMSDVLKVGVYLENGWERGEIANAIRRVMVDEEGEYIRQNARVLKQKADVSLMKGGSSYESLESLVSYISSL
B2: UGT76G1var4: UGT76G1 variant, mutations E224D_E231A_F265I (protein, UniProt Q6VAB4 1-458, looked up, variant E224D E231A F265I)
UDP-glycosyltransferase 76G1: MENKTETTVRRRRRIILFPVPFQGHINPILQLANVLYSKGFSITIFHTNFNKPKTSNYPHFTFRFILDNDPQDERISNLPTHGPLAGMRIPIINEHGADELRRELELLMLASEEDEEVSCLITDALWYFAQSVADSLNLRRLVLMTSSLFNFHAHVSLPQFDELGYLDPDDKTRLEEQASGFPMLKVKDIKSAYSNWQILKEILGKMIKQTKASSGVIWNSFKDLEESELATVIREIPAPSFLIPLPKHLTASSSSLLDHDRTVIQWLDQQPPSSVLYVSFGSTSEVDEKDFLEIARGLVDSKQSFLWVVRPGFVKGSTWVEPLPDGFLGERGRIVKWVPQQEVLAHGAIGAFWTHSGWNSTLESVCEGVPMIFSDFGLDQPLNARYMSDVLKVGVYLENGWERGEIANAIRRVMVDEEGEYIRQNARVLKQKADVSLMKGGSSYESLESLVSYISSL
B3: UGT76G1var77: UGT76G1 variant, mutations A239V_F265I_I295T_D301N_K393G (protein, UniProt Q6VAB4 1-458, looked up, variant A239V F265I I295T D301N K393G)
UDP-glycosyltransferase 76G1: MENKTETTVRRRRRIILFPVPFQGHINPILQLANVLYSKGFSITIFHTNFNKPKTSNYPHFTFRFILDNDPQDERISNLPTHGPLAGMRIPIINEHGADELRRELELLMLASEEDEEVSCLITDALWYFAQSVADSLNLRRLVLMTSSLFNFHAHVSLPQFDELGYLDPDDKTRLEEQASGFPMLKVKDIKSAYSNWQILKEILGKMIKQTKASSGVIWNSFKELEESELETVIREIPVPSFLIPLPKHLTASSSSLLDHDRTVIQWLDQQPPSSVLYVSFGSTSEVDEKDFLETARGLVNSKQSFLWVVRPGFVKGSTWVEPLPDGFLGERGRIVKWVPQQEVLAHGAIGAFWTHSGWNSTLESVCEGVPMIFSDFGLDQPLNARYMSDVLGVGVYLENGWERGEIANAIRRVMVDEEGEYIRQNARVLKQKADVSLMKGGSSYESLESLVSYISSL
B4: UGT76G1var78: UGT76G1 variant, mutations V279I_V300A_V310I_I335V_S357C (protein, UniProt Q6VAB4 1-458, looked up, variant V279I V300A V310I I335V S357C)
UDP-glycosyltransferase 76G1: MENKTETTVRRRRRIILFPVPFQGHINPILQLANVLYSKGFSITIFHTNFNKPKTSNYPHFTFRFILDNDPQDERISNLPTHGPLAGMRIPIINEHGADELRRELELLMLASEEDEEVSCLITDALWYFAQSVADSLNLRRLVLMTSSLFNFHAHVSLPQFDELGYLDPDDKTRLEEQASGFPMLKVKDIKSAYSNWQILKEILGKMIKQTKASSGVIWNSFKELEESELETVIREIPAPSFLIPLPKHLTASSSSLLDHDRTVFQWLDQQPPSSVLYISFGSTSEVDEKDFLEIARGLADSKQSFLWVIRPGFVKGSTWVEPLPDGFLGERGRVVKWVPQQEVLAHGAIGAFWTHCGWNSTLESVCEGVPMIFSDFGLDQPLNARYMSDVLKVGVYLENGWERGEIANAIRRVMVDEEGEYIRQNARVLKQKADVSLMKGGSSYESLESLVSYISSL
B5: UGT76G1var79: UGT76G1 variant, mutations E224D_T284I_V366I_I373L_K393G (protein, UniProt Q6VAB4 1-458, looked up, variant E224D T284I V366I I373L K393G)
UDP-glycosyltransferase 76G1: MENKTETTVRRRRRIILFPVPFQGHINPILQLANVLYSKGFSITIFHTNFNKPKTSNYPHFTFRFILDNDPQDERISNLPTHGPLAGMRIPIINEHGADELRRELELLMLASEEDEEVSCLITDALWYFAQSVADSLNLRRLVLMTSSLFNFHAHVSLPQFDELGYLDPDDKTRLEEQASGFPMLKVKDIKSAYSNWQILKEILGKMIKQTKASSGVIWNSFKDLEESELETVIREIPAPSFLIPLPKHLTASSSSLLDHDRTVFQWLDQQPPSSVLYVSFGSISEVDEKDFLEIARGLVDSKQSFLWVVRPGFVKGSTWVEPLPDGFLGERGRIVKWVPQQEVLAHGAIGAFWTHSGWNSTLESICEGVPMLFSDFGLDQPLNARYMSDVLGVGVYLENGWERGEIANAIRRVMVDEEGEYIRQNARVLKQKADVSLMKGGSSYESLESLVSYISSL
B6: UGT76G1var80: UGT76G1 variant, mutations L243P_L379A_S389E_Q425E_Q432E (protein, UniProt Q6VAB4 1-458, looked up, variant L243P L379A S389E Q425E Q432E)
UDP-glycosyltransferase 76G1: MENKTETTVRRRRRIILFPVPFQGHINPILQLANVLYSKGFSITIFHTNFNKPKTSNYPHFTFRFILDNDPQDERISNLPTHGPLAGMRIPIINEHGADELRRELELLMLASEEDEEVSCLITDALWYFAQSVADSLNLRRLVLMTSSLFNFHAHVSLPQFDELGYLDPDDKTRLEEQASGFPMLKVKDIKSAYSNWQILKEILGKMIKQTKASSGVIWNSFKELEESELETVIREIPAPSFPIPLPKHLTASSSSLLDHDRTVFQWLDQQPPSSVLYVSFGSTSEVDEKDFLEIARGLVDSKQSFLWVVRPGFVKGSTWVEPLPDGFLGERGRIVKWVPQQEVLAHGAIGAFWTHSGWNSTLESVCEGVPMIFSDFGADQPLNARYMEDVLKVGVYLENGWERGEIANAIRRVMVDEEGEYIRENARVLKEKADVSLMKGGSSYESLESLVSYISSL
B7: UGT76G1var81: UGT76G1 variant, mutations A33G_T263S_S274G_V279I_Y397E (protein, UniProt Q6VAB4 1-458, looked up, variant A33G T263S S274G V279I Y397E)
UDP-glycosyltransferase 76G1: MENKTETTVRRRRRIILFPVPFQGHINPILQLGNVLYSKGFSITIFHTNFNKPKTSNYPHFTFRFILDNDPQDERISNLPTHGPLAGMRIPIINEHGADELRRELELLMLASEEDEEVSCLITDALWYFAQSVADSLNLRRLVLMTSSLFNFHAHVSLPQFDELGYLDPDDKTRLEEQASGFPMLKVKDIKSAYSNWQILKEILGKMIKQTKASSGVIWNSFKELEESELETVIREIPAPSFLIPLPKHLTASSSSLLDHDRSVFQWLDQQPPGSVLYISFGSTSEVDEKDFLEIARGLVDSKQSFLWVVRPGFVKGSTWVEPLPDGFLGERGRIVKWVPQQEVLAHGAIGAFWTHSGWNSTLESVCEGVPMIFSDFGLDQPLNARYMSDVLKVGVELENGWERGEIANAIRRVMVDEEGEYIRQNARVLKQKADVSLMKGGSSYESLESLVSYISSL
B8: UGT76G1var82: UGT76G1 variant, mutations E224D_L243A_F265L_R334H_A352G (protein, UniProt Q6VAB4 1-458, looked up, variant E224D L243A F265L R334H A352G)
UDP-glycosyltransferase 76G1: MENKTETTVRRRRRIILFPVPFQGHINPILQLANVLYSKGFSITIFHTNFNKPKTSNYPHFTFRFILDNDPQDERISNLPTHGPLAGMRIPIINEHGADELRRELELLMLASEEDEEVSCLITDALWYFAQSVADSLNLRRLVLMTSSLFNFHAHVSLPQFDELGYLDPDDKTRLEEQASGFPMLKVKDIKSAYSNWQILKEILGKMIKQTKASSGVIWNSFKDLEESELETVIREIPAPSFAIPLPKHLTASSSSLLDHDRTVLQWLDQQPPSSVLYVSFGSTSEVDEKDFLEIARGLVDSKQSFLWVVRPGFVKGSTWVEPLPDGFLGERGHIVKWVPQQEVLAHGAIGGFWTHSGWNSTLESVCEGVPMIFSDFGLDQPLNARYMSDVLKVGVYLENGWERGEIANAIRRVMVDEEGEYIRQNARVLKQKADVSLMKGGSSYESLESLVSYISSL
B9: UGT76G1var83: UGT76G1 variant, mutations I43V_Q342E_S357N_S375R_L379G (protein, UniProt Q6VAB4 1-458, looked up, variant I43V Q342E S357N S375R L379G)
UDP-glycosyltransferase 76G1: MENKTETTVRRRRRIILFPVPFQGHINPILQLANVLYSKGFSVTIFHTNFNKPKTSNYPHFTFRFILDNDPQDERISNLPTHGPLAGMRIPIINEHGADELRRELELLMLASEEDEEVSCLITDALWYFAQSVADSLNLRRLVLMTSSLFNFHAHVSLPQFDELGYLDPDDKTRLEEQASGFPMLKVKDIKSAYSNWQILKEILGKMIKQTKASSGVIWNSFKELEESELETVIREIPAPSFLIPLPKHLTASSSSLLDHDRTVFQWLDQQPPSSVLYVSFGSTSEVDEKDFLEIARGLVDSKQSFLWVVRPGFVKGSTWVEPLPDGFLGERGRIVKWVPQEEVLAHGAIGAFWTHNGWNSTLESVCEGVPMIFRDFGGDQPLNARYMSDVLKVGVYLENGWERGEIANAIRRVMVDEEGEYIRQNARVLKQKADVSLMKGGSSYESLESLVSYISSL
B10: UGT76G1var84: UGT76G1 variant, mutations F22L_Q266S_F314S_A352G_S357C (protein, UniProt Q6VAB4 1-458, looked up, variant F22L Q266S F314S A352G S357C)
UDP-glycosyltransferase 76G1: MENKTETTVRRRRRIILFPVPLQGHINPILQLANVLYSKGFSITIFHTNFNKPKTSNYPHFTFRFILDNDPQDERISNLPTHGPLAGMRIPIINEHGADELRRELELLMLASEEDEEVSCLITDALWYFAQSVADSLNLRRLVLMTSSLFNFHAHVSLPQFDELGYLDPDDKTRLEEQASGFPMLKVKDIKSAYSNWQILKEILGKMIKQTKASSGVIWNSFKELEESELETVIREIPAPSFLIPLPKHLTASSSSLLDHDRTVFSWLDQQPPSSVLYVSFGSTSEVDEKDFLEIARGLVDSKQSFLWVVRPGSVKGSTWVEPLPDGFLGERGRIVKWVPQQEVLAHGAIGGFWTHCGWNSTLESVCEGVPMIFSDFGLDQPLNARYMSDVLKVGVYLENGWERGEIANAIRRVMVDEEGEYIRQNARVLKQKADVSLMKGGSSYESLESLVSYISSL

Experiment: Directed evolution of UGT76G1, Rebaudioside D to Rebaudioside M, round 1 (Example 26)
Format: biochemical
Details: 100 μL fresh lysate, 0.5 mM Rebaudioside D, 30° C., pH 7.2
Method in brief: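 Cleared cell lysate (Bugbuster) incubated with 0.5 mM Rebaudioside D, 3 mM MgCl2 and 2.5 mM UDP-glucose in 50 mM phosphate pH 7.2 at 30 °C. Samples at 2, 4, 7 and 24 h analysed by HPLC-CAD for conversion and initial rate.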

Compared with B1, B3 is lower in “conversion Reb D to Reb M after 24 h” value: 2.6% for the first, 1.9% for the second.

First: B4
Second: B5
The “conversion Reb D to Reb M after 24 h” value of the first is lower: 3.2% for the first, 8.5% for the second.

Going from B6 to B7, the “conversion Reb D to Reb M after 24 h” value rises from 1.0% to 15.0%.

First: B8
Second: B9
The “conversion Reb D to Reb M after 24 h” value of the first is higher: 1.1% for the first, 0.5% for the second.

In the case of B10, the “conversion Reb D to Reb M after 24 h” value is reported as 1.2%.

Compared with B1, B2 is higher in initial rate: 7.2E+05 Reb M area/min for the first, 8.6E+06 Reb M area/min for the second.

Going from B3 to B4, the initial rate rises from 4.4E+05 Reb M area/min to 8.2E+05 Reb M area/min.

Compared with B5, B6 is lower in initial rate: 3.8E+06 Reb M area/min for the first, 2.1E+05 Reb M area/min for the second.

Compared with B7, B8 is lower in initial rate: 6.5E+06 Reb M area/min for the first, 2.5E+05 Reb M area/min for the second.

Going from B9 to B10, the initial rate rises from 4.3E+04 Reb M area/min to 2.3E+05 Reb M area/min.
